Assay results published in patent publication US20190271705A1.

What was measured:
Experiment in all cases: fluorescence polarization in solution
[1] = target: fluorescein-GGpYGG peptide (SEQ ID NO: 23)
EGFR-pY978 peptide = target: EGFR-pY978 peptide
MidT-pY324 peptide = target: MidT-pY324 peptide
ShcA-pY239 peptide = target: ShcA-pY239 peptide

Row | Substance | Kd [1] | Kd (EGFR-pY978 peptide) | Kd (MidT-pY324 peptide) | Kd (ShcA-pY239 peptide)
1 | wild-type Fyn SH2 domain (hexa-histidine-tagged construct, SEQ ID NO:4) | 67000 nM |  |  | 
2 | T8V/C10A/K15L variant Src SH2 domain (designed binder) | 510 nM | 1 nM | 1 nM | 1 nM
